One data set deals with T1, PedE (Pseudomonas putida, UniProt Q88JH5).
T1 sequence (Q88JH5 34-631): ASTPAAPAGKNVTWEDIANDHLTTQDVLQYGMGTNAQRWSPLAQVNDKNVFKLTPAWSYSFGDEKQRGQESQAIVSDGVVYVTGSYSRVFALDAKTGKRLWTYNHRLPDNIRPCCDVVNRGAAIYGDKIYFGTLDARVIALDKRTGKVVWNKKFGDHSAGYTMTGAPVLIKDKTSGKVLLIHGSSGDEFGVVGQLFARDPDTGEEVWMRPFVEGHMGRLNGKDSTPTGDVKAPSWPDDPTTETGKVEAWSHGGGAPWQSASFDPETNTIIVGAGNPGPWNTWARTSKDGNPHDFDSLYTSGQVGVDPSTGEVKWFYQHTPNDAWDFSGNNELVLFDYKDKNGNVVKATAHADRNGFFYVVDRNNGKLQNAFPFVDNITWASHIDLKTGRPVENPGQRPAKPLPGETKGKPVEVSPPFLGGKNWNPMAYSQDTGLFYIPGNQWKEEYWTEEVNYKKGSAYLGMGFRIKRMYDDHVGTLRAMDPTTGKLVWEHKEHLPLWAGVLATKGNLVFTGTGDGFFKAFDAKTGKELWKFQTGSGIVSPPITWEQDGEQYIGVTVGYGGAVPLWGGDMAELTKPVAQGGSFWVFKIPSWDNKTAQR
Description: DCPIP/PMS dye-linked activity titrated with PQQ, one-site binding fit. Conditions: 10 mM ethanol, 1 mM CaCl2, 25 mM imidazole, 100 mM Tris HCl pH 8, 30°C preincubation. The data set is classed as biochemical.

The target of the next data set is T2, PedH (Pseudomonas putida, UniProt Q88JH0).
T2 sequence (Q88JH0 28-595): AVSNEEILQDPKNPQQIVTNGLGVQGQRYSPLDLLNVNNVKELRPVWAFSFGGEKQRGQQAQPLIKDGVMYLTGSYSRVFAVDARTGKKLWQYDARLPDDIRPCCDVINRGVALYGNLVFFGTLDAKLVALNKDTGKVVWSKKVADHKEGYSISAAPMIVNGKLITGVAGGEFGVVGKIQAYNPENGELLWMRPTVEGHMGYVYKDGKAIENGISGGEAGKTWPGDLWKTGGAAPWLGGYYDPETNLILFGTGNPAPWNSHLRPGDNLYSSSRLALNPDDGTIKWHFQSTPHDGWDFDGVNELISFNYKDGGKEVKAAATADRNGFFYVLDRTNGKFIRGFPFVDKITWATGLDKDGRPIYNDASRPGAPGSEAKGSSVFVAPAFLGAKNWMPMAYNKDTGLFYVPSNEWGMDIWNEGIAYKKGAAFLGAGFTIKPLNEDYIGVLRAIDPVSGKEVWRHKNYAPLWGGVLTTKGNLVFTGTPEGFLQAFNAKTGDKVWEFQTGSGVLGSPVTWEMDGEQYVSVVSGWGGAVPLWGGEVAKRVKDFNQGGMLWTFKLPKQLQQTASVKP
The description is as above. The data set is classed as biochemical. Conditions: 10 mM ethanol, 1 µM PrCl3, 25 mM imidazole, 100 mM Tris HCl pH 8, 30°C preincubation.

Substrate in the data set “purified protein”: CCO
Description: purified protein. To be noted: 1 µM PrCl3, 1 µM PQQ, 25 mM imidazole, 500 µM PMS, 150 µM DCPIP, 100 mM Tris HCl pH 8, 30°C preincubation.

Substrate in data set [1]: CC=O
Description: DCPIP/PMS dye-linked colorimetric assay, Michaelis-Menten fit. To be noted: 1 µM PrCl3, 1 µM PQQ, 25 mM imidazole, 500 µM PMS, 150 µM DCPIP, 100 mM Tris HCl pH 8, 30°C preincubation. Type of data set: biochemical, Pseudomonas putida.

Substrate in data set [2]: OCCc1ccccc1
The data set is described as above. Type of data set: biochemical, Pseudomonas putida. Conditions: 1 µM PrCl3, 1 µM PQQ, 25 mM imidazole, 500 µM PMS, 150 µM DCPIP, 100 mM Tris HCl pH 8, 30°C preincubation.

By Kd is commonly meant a measure of binding affinity in units of concentration. The Km is the substrate concentration at which the rate is half of its maximum.

Take `O=C(O)c1cc(C(=O)O)c2c(n1)C(=O)C(=O)c1cc(C(=O)O)[nH]c1-2` [PQQ]: the Kd at PedE came to 3.5 µM; on PedH it was 41 nM.

B1: PedH (Pseudomonas putida KT2440) (protein)
chain: T2 sequence (Q88JH0 28-595)
Take B1: the Km in the data set “purified protein” is 177 µM; in data set [1] it was 2261 ± 457 µM; in data set [2], 329 ± 22 µM.

The values are drawn from publication PMC5487730, “Functional Role of Lanthanides in Enzymatic Activity and Transcriptional Regulation of Pyrroloquinoline Quinone-Dependent Alcohol Dehydrogenases in Pseudomonas putida KT2440” (mBio, 2017).
